5 molecules from publication PMC11898274, “Interleukin-34 orchestrates bone formation through its binding to bone morphogenic proteins” (Theranostics, 2025) can be followed below.

Assay [1] deals with T1, Recombinant human interleukin-34 (IL34) (human, UniProt Q6ZMJ4 21-242).
T1 construct: Interleukin-34, human, recombinant; source: bought: R&D Systems
T1 sequence (looked up): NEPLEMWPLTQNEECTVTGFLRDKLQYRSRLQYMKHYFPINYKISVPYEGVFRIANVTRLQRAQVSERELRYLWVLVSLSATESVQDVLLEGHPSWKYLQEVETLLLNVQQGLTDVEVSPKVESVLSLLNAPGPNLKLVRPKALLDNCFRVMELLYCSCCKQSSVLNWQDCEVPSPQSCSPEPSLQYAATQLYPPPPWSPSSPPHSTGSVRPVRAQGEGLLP
Briefly: SPR; receptors captured on immobilized anti-human Fc; IL34 injected (18.75, 37.5, 75, 150, 300 nM); T200, 25 °C, PBS pH 7.4 with 0.05% P20; steady-state fitting model. The note with it: both partners purified. (SPR reads the build-up and loss of mass on a sensor chip optically.)

Assay [2] addresses T2, Recombinant human bone morphogenetic protein 2 (BMP2) (human, UniProt P12643 283-396).
T2 chain: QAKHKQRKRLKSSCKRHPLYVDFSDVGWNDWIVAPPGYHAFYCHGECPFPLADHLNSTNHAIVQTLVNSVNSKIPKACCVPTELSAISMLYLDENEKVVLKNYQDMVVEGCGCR
Briefly: SPR.

The target in assay [3] is T3, Recombinant human bone morphogenetic protein 4 (BMP4) (human, UniProt P12644 293-408).
T3 chain: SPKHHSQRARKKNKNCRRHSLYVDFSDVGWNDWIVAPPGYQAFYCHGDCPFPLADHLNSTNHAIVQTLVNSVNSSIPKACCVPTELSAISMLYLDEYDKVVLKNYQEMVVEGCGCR
Description: SPR.

The target in assay [4] is T4, Recombinant human bone morphogenetic protein 7 (BMP7) (human, UniProt P18075 293-431).
T4 chain: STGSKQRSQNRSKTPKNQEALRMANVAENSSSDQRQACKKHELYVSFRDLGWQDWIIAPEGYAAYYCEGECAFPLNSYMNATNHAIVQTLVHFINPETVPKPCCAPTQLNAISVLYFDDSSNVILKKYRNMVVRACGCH
Description: SPR.

Assay [5] addresses T1, Recombinant human interleukin-34 (IL34). Briefly: SPR; BMP2, BMP4 or BMP7 immobilised (1500-2300 RU) on CM5-S chip by amine coupling at pH 4.5; IL34 injected in one cycle titration (12.5-200 nM, 60 s, 100 µL/min), 600 s dissociation; T200, 25 °C, PBS pH 7.4 with 0.05% P20; bivalent fitting model. The note with it: both partners purified.

By koff is commonly meant the rate constant with which the complex falls apart.

B1: Human Activin RIIB receptor (ActRIIB) (Fc fusion, UniProt Q13705 19-137, looked up)
chain: SGRGEAETRECIYYNANWELERTNQSGLERCEGEQDKRLHCYASWRNSSGTIELVKKGCWLDDFNCYDRQECVATEENPQVYFCCCEGNFCNERFTHLPEAGGPEVTYEPPPTAPTLLT
notes: Activin receptor type-2B, human recombinant; source: bought: R&D Systems
In the case of B1, the binding result in assay [1] was “binds”.

B2: Recombinant human interleukin-34 (IL34) (ligand)
chain: NEPLEMWPLTQNEECTVTGFLRDKLQYRSRLQYMKHYFPINYKISVPYEGVFRIANVTRLQRAQVSERELRYLWVLVSLSATESVQDVLLEGHPSWKYLQEVETLLLNVQQGLTDVEVSPKVESVLSLLNAPGPNLKLVRPKALLDNCFRVMELLYCSCCKQSSVLNWQDCEVPSPQSCSPEPSLQYAATQLYPPPPWSPSSPPHSTGSVRPVRAQGEGLLP
In the case of B2, the figures for the koff in assay [2], in assay [3] and in assay [4] were 0.0229 s⁻¹, 0.0467 s⁻¹ and 0.0561 s⁻¹, respectively.

B3: Recombinant human bone morphogenetic protein 2 (BMP2) (ligand, UniProt P12643 283-396, looked up)
chain: QAKHKQRKRLKSSCKRHPLYVDFSDVGWNDWIVAPPGYHAFYCHGECPFPLADHLNSTNHAIVQTLVNSVNSKIPKACCVPTELSAISMLYLDENEKVVLKNYQDMVVEGCGCR
notes: Bone morphogenetic protein 2, human, recombinant; source: bought: R&D Systems
For B3, in assay [5], the Kd came to 363 nM.

B4: Recombinant human bone morphogenetic protein 4 (BMP4) (ligand, UniProt P12644 293-408, looked up)
chain: SPKHHSQRARKKNKNCRRHSLYVDFSDVGWNDWIVAPPGYQAFYCHGDCPFPLADHLNSTNHAIVQTLVNSVNSSIPKACCVPTELSAISMLYLDEYDKVVLKNYQEMVVEGCGCR
notes: Bone morphogenetic protein 4, human, recombinant; source: bought: R&D Systems
Regarding B4, the Kd in assay [5] came out at 426 nM.

B5: Recombinant human bone morphogenetic protein 7 (BMP7) (ligand, UniProt P18075 293-431, looked up)
chain: STGSKQRSQNRSKTPKNQEALRMANVAENSSSDQRQACKKHELYVSFRDLGWQDWIIAPEGYAAYYCEGECAFPLNSYMNATNHAIVQTLVHFINPETVPKPCCAPTQLNAISVLYFDDSSNVILKKYRNMVVRACGCH
notes: Bone morphogenetic protein 7, human, recombinant; source: bought: R&D Systems
Take B5: the Kd in assay [5] came out at 922 nM.
